Experimental findings from PMC7116727 are described below.

In the assay the target is S2 component of the furin-cleaved SARS-CoV-2 spike ectodomain ('2P' mutant) (SARS-CoV-2) (UniProt P0DTC2). Description: cryo-EM structure.

For orientation: stoichiometry N means the number of molecules, sites or subunits per partner or assembly. In turn, “S2 component of the furin-cleaved SARS-CoV-2 spike ectodomain ('2P' mutant) (from UniProt P0DTC2) (domain or fragment)” displayed a stoichiometry N of 3.
